Reference: the supplement of paper PMC9170038

Tested on: MS2 coat protein
Assay: apparent KD of MS2 coat protein; designed switch direction (-1 OFF switch, 1 ON switch): -1; higher = weaker reporter binding
How it was run: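 Three titration conditions were used: no input, 200 uM small-molecule ligand, and an oligonucleotide input. In each, SNAP-549-labelled MS2 coat protein was raised from 0.7 or 1.5 nM, doubling, to 3 µM over designed RNA switches transcribed on Illumina chips by stalled E. coli RNA polymerase. Curve fits of normalised cluster fluorescence gave values whose per-design median over clusters is the apparent KD.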

[1] = input ligand: microRNA oligo, concentration not stated
[2] = Eterna round: R95, input ligand: FMN 200 uM
[3] = Eterna round: R95, input ligand: microRNA oligo, concentration not stated
[4] = Eterna round: R95, input ligand: none

Row | Sequence | apparent KD of MS2 coat protein (input ligand: FMN 200 uM) [nM] | apparent KD of MS2 coat protein (input ligand: none) [nM] | apparent KD of MS2 coat protein [1] [nM] | apparent KD of MS2 coat protein [2] [nM] | apparent KD of MS2 coat protein [3] [nM] | apparent KD of MS2 coat protein [4] [nM]
1 | GUAGAGUCAGGAUAUACAAGAUCGAUAGAUCAAAGGUCCAUACAUGAGGAUCACCCAUGUAGAAGGGACUCUAC [Mat - Exclusion 2 - Eli Mod - D9] (Eterna round: R97, puzzle: Exclusion 2) | 37.2 | 17.9 |  |  |  | 
2 | AGUACAAUCACGAAAGUGAUUGUACAAUAAGCUUGUGAAACAUGAGGAUCACCCAUGUCCUCAUAAGCUCGUCUUAU [Mat - Sensor v2 -ver2- JL mod - D69] (Eterna round: R96, puzzle: Sensor v2, turn-off variant 2) | 16.1 | 18.4 | 416 |  |  | 
3 | UCAUGUCCAGAGGAUAUGUAGAUCGAGAGAUCAACAGAAGGCUGGACAUGAGGAUCACCCAUGUGCGCCUUCAA [jl-ex3-4.29 ViennaUCT mod] (Eterna round: R97, puzzle: Exclusion 6) | 70.6 | 188 |  |  |  | 
4 | CAUGGAUGUGAGCCGCAUUACAUGAGGAUCACCCAUGUCAACAAGCUUUUUGCUUAUCUUACGCGGCGGCAUCAAAA [Enisusti] (puzzle: Sensor v3, turn-off variant 1) |  |  |  | 13.4 | 11.8 | 9.39
5 | UUUGUCUGUGUGAGGAUAUACUUUUUUUGGUUUUUGUAGAAGGCACAUGAGGAUCACCCAUGUAUUUUGUUGUG [JR_BME4_Sub016] (puzzle: Brourd's mod of Exclusion 4) |  |  |  |  | 31.1 | 
6 | AGCUGUGGCCGAGGAUAUACACAUGAGGAUCACCCAUGUAGGCGCGGAUACGCGCUAAAAUAAGUGUAGAAGGCGGUCUCAGCA [Eli eng2 - 056] (Eterna round: R96, puzzle: Exclusion NG 2) | 20.1 | 18.1 | 17.4 |  |  | 
7 | GGAUAUAACGUAGGAUAUCUGAGAAACAGACGAAGAGAAGGACGACAUGAGGAUCACCCAUGUGAUCUAUCAAUAUUAUACAUG [Prohibition 99 - Jieux - Exclusion NG 1] (Eterna round: R96, puzzle: Exclusion NG 1) | 412 | 351 | 330 |  |  | 
8 | UCGCUGCGAGGAUAUACGUUUGCGCGUUUUCGUUUGCGCGUACAUGAGGAUCACCCAUGUAGAAGGCGCGCUGC [Apr-15 SS2-10] (puzzle: Exclusion 2) |  |  |  |  | 13.3 | 
9 | AGUAACUAUCACGAAAGUGAUAGUUACAACAGGUGAUAAACAUGAGGAUCACCCAUGUCCUCAUUUGCUCGUCUUAU [Sensor 3 - 11] (puzzle: Sensor v3, turn-off variant 2) |  |  |  | 984 | 422 | 527
10 | CUUUUGUGAGGAUAUCAGUAGUAAAAAAAUAAAUUUACUACUGAGAAGGCACAUGAGGAUCACCCAUGUUCCUC [salish99_ex4_r3_025] (puzzle: Exclusion 4) |  |  |  |  | 42.9 | 
11 | GUAGAGUAAGGAUAUGUUGAAUAGGAUAGAAUGGUUAGAAAGCAGAAGGUACAUGAGGAUCACCCAUGUAAUGU [Excluse me!!!! 14 - Jieux - Exclusion 4] (puzzle: Exclusion 4) |  |  |  |  | 21.4 | 
12 | AAUAAAUAGGAGGAUAUCGUAUCGGAAACGAUACGAGAAGGUCUAACAUGAGGAUCACCCAUGUUCCUCAAUAA [Mat - Exclusion 6 - Eli Mod - D45] (puzzle: Exclusion 6) |  |  |  |  | 39.4 | 
13 | GGUGCUGGCGCGUCGGUGUUGGUGCAAUAAGCUUGUGAAACAUGAGGAUCACCCAUGUCCUCAUAGGCUCGUCUUGU [salish99_TOv2_r2_088] (puzzle: Sensor v3, turn-off variant 2) |  |  |  | 16.4 | 544 | 14.4
14 | UUAACCAGAGGAUAUGCGAAUAAAUAAAACUUUUUUUUUUAACAUGAGGAUCACCCAUGUAGAAGGCUGCAUUU [Ex2 #30] (Eterna round: R97, puzzle: Exclusion 2) | 25.4 | 25.1 |  |  |  | 
15 | GUAGAGUAAGGAUAUUGUGAAUAGGAUAGAAUGGUUAGAAACGAGAAGGUACAUGAGGAUCACCCAUGUAAUGU [Excluse me!!!! 22 - Jieux - Exclusion 4] (puzzle: Exclusion 4) |  |  |  | 24.1 | 22.1 | 24.4
16 | AGUUGGCGAGGAUAUACAUGAGGAUCACCCAUGUGAGAGAUACUAGUGAGGUCGAUUAGGAGAAGGCGCUGACA [Mat X3R4 m20] (Eterna round: R97, puzzle: Exclusion 3) | 63.1 | 48 |  |  |  | 
